In PMC4346919 (2015) one finds percent of parent data, which are given here for four variants.

B1: biotin-labeled ALG-2 [modified: biotin-labeled; biotin-labeled] [human] / GST-SGG-linker-8xHis fused with the eight-residue Sec31A peptide (NPPPPGFI), wild type [human] (parent complex)
chain 1: MAAYSYRPGPGAGPGPAAGAALPDQSFLWNVFQRVDKDRSGVISDTELQQALSNGTWTPFNPVTVRSIISMFDRENKAGVNFSEFTGVWKYITDWQNVFRTYDRDNSGMIDKNELKQALSGFGYRLSDQFHDILIRKFDRQGRGQIAFDDFIQGCIVLQRLTDIFRRYDTDQDGWIQVSYEQYLSMVFSIV
chain 2: NPPPPGFI

The assay covers variants of B1. The assay is described as follows: far-Western blot (FW), signal intensity measured with ImageJ; n = 4; read off a plot.
Regarding chain 2 P4A, the percent of parent was ~42 % of WT.
As to chain 2 N1P, the percent of parent is ~100 % of WT.
Under chain 2 P5L stands ~55 % of WT; under chain 2 I8G, ~9 % of WT.
